# Ends that are not written are not given here.
# Molecular target: mammalian voltage-gated Kv1.2 channel (mammalian)
binder,measurement,value
VSCTGSKDCYAPCRQQTGCPNAKCINKSCKCYGC (not fully specified; ends and bridges not checked) [[Q15]-MTX],potency on the channel,0.047 nM
